Assay: soluble on expression in E. coli; label from the status in PepcDB or PDB records

Row | Sequence | soluble on expression in E. coli
1 | AAASMDAVTAEKFSPASFLDKKETGVLHFVKYHGLGNDFILVDNRDSSEPKITQEQAAKLCDRNFGVGADGVIFAMPGVNGTDYAMRIFNSDGSEPEMCGNGVRCFARFIAELENLQGKHSFTIHTGAGLIVPEIQDDGQVKVDMGTPILKAQDVPTKLSGNKGEAVVEAELVVDGVSWNVTCVSMGNPHCITFGKKGGPNLKVDDLNLPEIGPKFEHHEMFPARTNTEFVEVLSRSHLKMRVWERGAGATLACGTGACALVVAAVLEGRADRKCTVDLPGGPLEIEWKQEDNHIYMTGPAEAVFYGSALLHHHHHH | soluble
2 | AAPTATVTPSSGLSDGTVVKVAGAGLQAGTAYWVAQSAWVDTGVYASNPADISSVTADANGSASTSLTVRRSFEGFLWDGTRWGTVDCTTAACHVTLRDALSNGPEGVAISF | soluble
3 | ADAYFYNPITSQRSNFPLSYPMTAKSFMEKHGLLDREEYLKRLAENENNVELVNYPLEKLEFNRRVNKLNVLMISVNNLRADALNQEEMPNLYEFAQQNQNFRKHYSSSNDTYGAFGLFYGLPTSYASSIKAQGASPVLLDVLKDQGYTFGLFSGSGFEDDLYSEIVFRGVNLAEKLDGTQAHTDKQSIADWNMWLTEKANQPWFSYIEVTTVDNFESIPSNSKEDMSASERFKNAYEFAVKSADDKVGGIIKTLEDAQLLANTVVIVTSNHGSEFNETNTNSWGANSNYSRYQLQVPMVIHWPGMMAGEFNHSTSHLDLSVTLLQDMLGVSSNPYDYSSGRNLFDESRRRWILAGDTRELALITNNQTTVIDKFGNYKLYDENYKRMRDETPKLPVLMQGLTELQRFYSKSE | not soluble
4 | ADLGHQTLGSNDGWGAYSTGTTGGSKASSSNVYTVSNRNQLVSALGKETNTTPKIIYIKGTIDMNVDDNLKPLGLNDYKDPEYDLDKYLKAYDPSTWGKKEPSGTQEEARARSQKNQKARVMVDIPANTTIVGSGTNAKVVGGNFQIKSDNVIIRNIEFQDAYDYFPQWDPTAGSSGNWASQYDNITINGGTHIWIDHCTFNDGSRPDSTSPKYYGRKYQHHDGQTDASNGANYITMSYNYYHDHDASSIFGSSDSKTSDDGKLKITLHHNRYKNIVQRAPRVRFGQVHVYNNYYEGSTSSSSYPFSYAWGIGKSSKIYAQNNVIDVPGLSAAKTISVFSGGTALYDSGTLLNGTQINASAANGLSSSVGWTPSLHGSIDASANVKSNVINQAGAGKLN | soluble
5 | ADTRIGVTIYKYDDNFMSVVRKAIEKDGKSAPDVQLLMNDSQNDQSKQNDQIDVLLAKGVKALAINLVDPAAAGTVIEKARGQNVPVVFFNKEPSRKALDSYDKAYYVGTDSKESGVIQGDLIAKHWQANQGWDLNKDGKIQYVLLKGEPGHPDAEARTTYVVKELNDKGIQTEQLALDTAMWDTAQAKDKMDAWLSGPNANKIEVVIANNDAMAMGAVEALKAHNKSSIPVFGVDALPEALALVKSGAMAGTVLNDANNQAKATFDLAKNLAEGKGAADGTSWKIENKIVRVPYVGVDKDNLSEFTQK | soluble
6 | AEASADLRADAMAKDRSEEERTTEAEKNERVQKHLKALTSELANARDESKKTANDMIHAENMRLGRDKYKTLRQIRQGNTKQRIDEFESM | soluble
7 | AEEFPVPNGFESAYREVDGVKLHYVKGGQGPLVMLVHGFGQTWYEWHQLMPELAKRFTVIAPDLPGLGQSEPPKTGYSGEQVAVYLHKLARQFSPDRPFDLVAHDIGIWNTYPMVVKNQADIARLVYMEAPIPDARIYRFPAFTAQGESLVWHFSFFAADDRLAETLIAGKERFFLEHFIKSHASNTEVFSERLLDLYARSYAKPHSLNASFEYYRALNESVRQNAELAKTRLQMPTMTLAGGGHGGMGTFQLEQMKAYAEDVEGHVLPGCGHWLPEECAAPMNRLVIDFLSRGRHHHHHH | soluble
8 | AEMEVQIVRNDPPLRYDTNLPVDLLHMVYAGRGATGSSGVVFGTWYRTIQDRTITDFPLTTRSADFRDGRMSKTFMTALVLSLQACGRLYVGQRHYSAFECAVLCLYLLYRNTHGAADDSDRAPVTFGDLLGRLPRYLACLAAVIGTEGGRPQYRYRDDKLPKTQFAAGGGRYEHGALASHIVIATLMHHGVLPAAPGDVPRDASTHVNPDGVAHHDDINRAAAAFLSRGHNLFLWEDQTLLRATANTITALGVIQRLLANGNVYADRLNNRLQLGMLIPGAVPSEAIARGASGSDSGAIKSGDNNLEALCANYVLPLYRADPAVELTQLFPGLAALCLDAQAGRPVGSTRRVVDMSSGARQAALVRLTALELINRTRTNPTPVGEVIHAHDALAIQYEQGLGLLAQQARIGLGSNTKRFSAFNVSSDYDMLYFLCLGFIPQYLSAV | soluble
9 | AHHHHHHASAKWVCKICGYIYDEDAGDPDNGISPGTKFEELPDDWVCPICGAPKSEFEKLEDGSEKVDRIIQMEIGRINSHLPKARKSLCELLKEDSPSIELRDGSLHYFRRSELEFLKTLAGEEACLVKLPIILELSTLDRGYFVVRGRGEVRVIKKLLELSEDIYLEENTVRLPRYYLPTIRRKLPTTTVYAFITEW | soluble
10 | AHHHHHHGSAELKVSAIKEGTVIDHIPAGKGLKVIQILGLGELKNGGAVLLAMNVPSKKLGRKDIVKVEGKFLSEEEVNKIALVAPTATVNIIREYKVVEKFKVEIPDVIEGILKCGNPNCITHYEYVTPKFYVISKEPLKVRCHYCERTMEEEEILANL | soluble
11 | AHHHHHHGSARITEEQRRKLAQDALEYHRNNFPGNGKIEVIPKVPLRDFYDLSLAYTPGVAEPCKVIAKKGNYEDYTIIPNTVAVVTDGSAILGLGNIGVLAGMPVMEGKCVLFKALAGIDAFPILIDTQDVEKIVETIKLISKGFGGINLEDISAPRCFEIEMRLKRELDIPVFHDDQHGTAVVTLAGLINALKLVGKKFNEIKVAISGAGAAGIAIAKLLHHVGVKEILLVDRAGIIYEGRKENMNPYKEEVARFNIHGVQGDLAKAMEGADVFIGVSVGGIVKPWMIKKMADDPIVFAMANPIPEIMPEDAKKAGAKIVATGRSDYPNQINNVLGFPGIFRGALDVRATDITLNMNIAAAEAIASVVSDEELSEDYIIPSPLHPDVYPKEARAVAEQAIRDGVARRKLSGEWVEEHTRKLREFYAALIEPLNERRKQYIT | soluble
12 | AHHHHHHGSEDIVEALKLAVTNLPEDVALALKNAYEREDYEIAKYNLEIMLRAVKTSKKEKVPLCQDTGTPIFFVETDGTWNVKEIYETIAEAVKRATDEIPLRPNAICLLSGKVVGNVPEIHIEPGKRNRISILIKGGGSENCSALFPLTPGDWFEGVKKKIIDHIRSCGGKPCPPIIVGIGIASPAERAITLAKKSLFRKIGERHEKLGWLEEEILEEINFLDIGPMGLGGKTTALDVKIEVGERHPASFIVGIAIQCWAHRRAFIEEKEDGEVVIWQ | soluble
13 | AHHHHHHGSEKALILAEGRYKTTDGKTAHGLVRYSKRFEIVGVIDSTLAGRDAGEILDGIYRGIPIYGSLEEALAEHPDVKYLIIGVATPGGYLPPLYREIIKKAIKKRINIVNGLHNFLSDDPEFSRLAKRYKVQLIDVRKMYRDLKIPFTGKIKEVRAIKIAVLGTDAAIGKRTTAIMLHEAFERFGKKSVFVAMGQTGWMQGAKYCIVMDSIINDFVVGAIEDVIWRAWKEENPDVIVTHGEGSLLHPAYPGGFELIAAGRPDYIILQHAPARKFFDDFPQYEIPPLEKYIQLIELLSGKKPIAITINSEGLTKEEALQKAREIEETYGILTRVPLYEGVDDIVKAILEEVERIKVTVPQEGAVNASQVL | not soluble
14 | AHHHHHHGSFKILRKERLAPGINLFEIESPRIAKHAKPGQFVMIRLHEKGERIPLTIADVDISKGSITIVAQEVGKTTRELGTYEAGDYILDVLGPLGKPSHIDYFGTVVMIGGGVGVAEIYPVAKAMKEKGNYVISILGFRTKDLVFWEDKLRSVSDEVIVTTNDGSYGMKGFTTHALQKLIEEGRKIDLVHAVGPAIMMKAVAELTKPYGIKTVASLNPIMVDGTGMCGACRVTVGGEVKFACVDGPEFDAHLVDWDQLMNRLAYYRDLEKISLEKWERERRMV | soluble
15 | AHHHHHHGSILLLTGMPGSGKGVVAREFEKRGIPVVSMGDAIREEAEKRGIPKTPEGLKEVSLKVREELGPGAVAILTVPKVRKLLELNPVVVVEGVRSPYEVEEFRKEFKNEEIKVVAIHSSPKSRFQRLLKRQRSDDPKTWEEFVERDRKELNFGIGEVIALADYIIVNECGFDQLKANIEKLISMIFDGKI | soluble
16 | AHHHHHHGSKFPKNFMFGYSWSGFQFEMGLPGSEVESDWWVWVHDKENIASGLVSGDLPENGPAYWHLYKQDHDIAEKLGMDCIRGGIEWARIFPKPTFDVKVDVEKDEEGNIISVDVPESTIKELEKIANMEALEHYRKIYSDWKERGKTFILNLYHWPLPLWIHDPIAVRKLGPDRAPAGWLDEKTVVEFVKFAAFVAYHLDDLVDMWSTMNEPNVVYNQGYINLRSGFPPGYLSFEAAEKAKFNLIQAHIGAYDAIKEYSEKSVGVIYAFAWHDPLAEEYKDEVEEIRKKDYEFVTILHSKGKLDWIGVNYYSRLVYGAKDGHLVPLPGYGFMSERGGFAKSGRPASDFGWEMYPEGLENLLKYLNNAYELPMIITENGMADAADRYRPHYLVSHLKAVYNAMKEGADVRGYLHWSLTDNYEWAQGFRMRFGLVYVDFETKKRYLRPSALVFREIATQKEIPEELAHLADLKFVTRK | not soluble
17 | AHHHHHHGSKIAIPTNGGGREDTVAPLFARAPAFYIAEVDEKGNIISEKVIQNPAATAGRGAGPIAVQMLINEGVDTIVAPQVVPNALGAIQAAGIRVYYVTPGTPVEEAIKVATTGQGGQLPSLPQIPTPVTPAPAMYGPVYPPFGWGRGWGKGRGWGRGWGSILGYCPWTGMPSRRALRWYYGWW | not soluble
18 | AHHHHHHGSKRVNAFNDLKRIGDDKVTAIGMGTWGIGGRETPDYSRDKESIEAIRYGLELGMNLIDTAEFYGAGHAEEIVGEAIKEFEREDIFIVSKVWPTHFGYEEAKKAARASAKRLGTYIDLYLLHWPVDDFKKIEETLHALEDLVDEGVIRYIGVSNFNLELLQRSQEVMRKYEIVANQVKYSVKDRWPETTGLLDYMKREGIALMAYTPLEKGTLARNECLAKIGEKYGKTAAQVALNYLIWEENVVAIPKASNKEHLKENFGAMGWRLSEEDREMARRCV | soluble
19 | AHHHHHHGSLVITPRRLHLGIIDPTGSLGRRFGSLGVALEGGYEIRITPADSLKIEAEKEDKETIKETIEKLNFEYDTGFGFYIEVRKSIPRHIGLGSTTQLTLGIAMGILKLLHKDVPVEEVAKILGRGKNSGVGIYAFKYGGFVVDGGVKDSVPPLLVRKDFPEDWAFLLVIPQVKRGFDEKEEQKIMEKPFGSASIAKEISYRILLGLLPALAEKNIEEFGRYLSTIQTLVGSSFSDFQGGEFREDIRLIVEFLNEITYGAGQSSWGPTVYGLIKRAEYQRVASRVAEFLDEQGIKAKIELGIPRNRGAEVKGESLFLERLIKSVSQ | soluble
20 | AHHHHHHGSNYRYPPRYGPEWGSGGIYGLRFHNGTLYFTLAFEGEAHFITEDSHKIYEFELVGPRPTSGGDTYNAVEVVDEYIYFGGWVHAPAKYRGKGEGKATIDFSNKYSHVHEYDTENQEVRLVWKESIHHPSEWAGEVSDIIYNPYTDELLLAREDGHTNLGVYSLSRNGRIRLLNDKPSAKGCQMHDLAFFGIGKNYRKGLEEIHALDMITERWEVFPLGESLDGGKYIQPHLGGNGVSVNNRVFAFVRGGVFVGNPHNDEQFAFVRLFDFYTFYAPFRVNALPIGGGILVGFNAHHDAYYRPRTQEEMIYHRFTNTIPGPSVLVYFAPPMVKIVGVFGARITSIEKVDGKILVATNTTPNVGALDATPFDTGNKDIFVLPEKILQEKPPAVSFSVPLAFPSEGKRMGAGVFGGIPLDGYDNARLIIKASRDNRLKVYEYDLALPLRDADVEEFDIKKGRNVIDLRTFSGIVSFELESEDFSGVARIELW | not soluble
21 | AHHHHHHGSRMRQEERKFVELVERIMERWGYDRTGGKIYGILLLSNKPLTISELSKITGLSRSSVSVALSKLTREYLVTYTKEKKTKYFYAVPAFLEKFLKQPKEILEREIKPLKEIVVKLAEKSNEEEKARFEAILSDLLTLECVLKKIIELEEKESECLKK | not soluble

From the DeepSol protein solubility set
